Experimental data from paper PMC7020254.

What was measured:
P00451 [1] = test: AUC; sedimentation velocity, 105,000 g, 20 C, A280; Helixate desalted into HBS/Ca/PS-80, treated 10 min with 80 uM ClO- or control buffer, exchanged into HBS/Ca/PS-80; c(s) 0-100 S; aggregates 12-100 S relative to 5-100 S
P00451 [2] = test: AUC; sedimentation velocity, 105,000 g, 20 C, A280; Helixate in 2x formulation buffer treated with 80 uM ClO- or control buffer, then buffer exchange on a desalting column; c(s) 0-100 S; aggregates 12-100 S relative to 5-100 S
P00451 [3] = test: AUC; sedimentation velocity, 105,000 g, 20 C, A280; Helixate in its therapeutic formulation buffer; c(s) 0-200 S; aggregates integrated 15-100 S
P00451 [4] = test: AUC; sedimentation velocity, 105,000 g, 20 C, A280; Helixate exchanged into HBS/Ca/PS-80 and immediately run; c(s) 0-200 S; aggregates integrated 12-100 S

Helixate FS (recombinant full-length factor VIII) oxidized with 80 uM ClO-
percent of signal in aggregates (12-100 S relative to 5-100 S) (P00451 [1]): 13.4 and 13.3% of the signal
percent of signal in aggregates (12-100 S relative to 5-100 S) (P00451 [2]): 14.5 and 9.2%

Helixate FS (recombinant full-length factor VIII), non-oxidized
percent of signal in aggregates (15-100 S) (P00451 [3]): 18.9% and 15.9%
percent of signal in aggregates (12-100 S) (P00451 [4]): 18.9% and 15.9%
percent of signal in aggregates (12-100 S relative to 5-100 S) (P00451 [1]): 13.4 and 13.3% of the signal
percent of signal in aggregates (12-100 S relative to 5-100 S) (P00451 [2]): 14.5 and 9.2%
